Results reported in patent US20250277045A1 (KEYMED BIOSCIENCES, published 2025).
Changes are numbered by the printed parent chain.

T1: human BCMA on cells (CHO-hBCMA clone 2C2; NCI-H929; RPMI-8226) (human, UniProt Q02223 1-184)
T1 sequence (looked up): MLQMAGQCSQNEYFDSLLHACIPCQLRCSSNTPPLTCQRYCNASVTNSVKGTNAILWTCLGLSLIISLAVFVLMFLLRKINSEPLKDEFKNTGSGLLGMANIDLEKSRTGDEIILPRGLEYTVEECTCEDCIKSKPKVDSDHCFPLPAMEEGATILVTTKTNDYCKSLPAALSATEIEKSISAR

B1: h38D9-CD3 (bispecific antibody, V domains shown)
VH 1: QVQLVQSGSELKKPGASVKVSCKASGYIFTNFGMNWVREAPGQGLEWMGWINTYTGEQIYADDFKGRFAFSLDTSASTAYLQISSLKAEDTAVYFCARGEIYYGYDVGFVYWGQGTLVTVSS
VL 1: DIVLTQSPASLAVSPGQRATITCRASKSVSTSGYSYMHWYQKKPGQPPKLLIYLGSDLESGVPARFSGSGSGTDFTLTINPVEANDTANYYCQHSRELPWTFGQGTKVEIK
VH 2: EVQLVESGGGLVQPGGSLRLSCAASGFTFNTYAMNWVRKAPGKGLEWVGRIRSKYNNYATYYADSVKDRFTISRDDSKNSLYLQMNSLKTEDTAVYYCVRHGNFGNSYVSWFAYWGQGTLVTVSS
VL 2: QAVVTQEPSLTVSPGGTVTLTCRSSTGAVTTSNYANWVQEKPGQAPRGLIGGTNKRAPWTPARFSGSLLGGKAALTITGAQAEDEAEYYCVLWYSNLWVFGGGTKLTVL
B2: h15H10-CD3 (bispecific antibody, V domains shown)
VH 1: B1 VH 1 with I28T, E57D, Q58L, A61G, V110A
VL 1: B1 VL 1 with G55A, D57N
VH 2: B1 VH 2
VL 2: B1 VL 2
B3: h34G2-CD3 (bispecific antibody, V domains shown)
VH 1: B1 VH 1 with I28T, F32Y, Q58R
VL 1: B1 VL 1 with G55A, D57N
VH 2: B1 VH 2
VL 2: B1 VL 2
B4: h29A11-CD3 (bispecific antibody, V domains shown)
VH 1: B1 VH 1
VL 1: B1 VL 1 with G55A, D57N
VH 2: B1 VH 2
VL 2: B1 VL 2

Assays:
[1] = biological target: human CD3 on T cells (Jurkat cells; human peripheral blood CD4+ and CD8+ T cells) (human, UniProt P07766 23-207); experiment: cell-based or functional assay
[2] = biological target: T1, human BCMA on cells (CHO-hBCMA clone …); experiment: cell-based or functional assay
For Upregulation of CD25 (%), CD4+T in this document: test concentration or dose not given here.
For Upregulation of CD25 (%), CD8+T in this document: test concentration or dose not given here.
For Upregulation of CD69 (%), CD4+T in this document: test concentration or dose not given here.
For Upregulation of CD69 (%), CD8+T in this document: test concentration or dose not given here.

human CD3 on T cells (Jurkat cells; human peripheral blood CD4+ and CD8+ T cells), sequence (P07766 23-207): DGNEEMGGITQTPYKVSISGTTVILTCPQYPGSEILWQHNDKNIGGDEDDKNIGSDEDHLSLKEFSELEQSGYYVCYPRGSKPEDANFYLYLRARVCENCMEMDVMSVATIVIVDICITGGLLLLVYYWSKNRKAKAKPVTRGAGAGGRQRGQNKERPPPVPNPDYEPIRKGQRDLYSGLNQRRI

Binder	Upregulation of CD25 (%), CD4+T [1]	Upregulation of CD25 (%), CD8+T [1]	Upregulation of CD25 EC50, CD4+T [1]	Upregulation of CD25 EC50, CD8+T [1]	Upregulation of CD69 (%), CD4+T [1]	Upregulation of CD69 (%), CD8+T [1]	Upregulation of CD69 EC50, CD4+T [1]	Upregulation of CD69 EC50, CD8+T [1]	Killing EC50 (TDCC, LDH release; PBMC + RPMI-8226) [2]
B1	29%	35%	0.77 nM	1.75 nM	57%	52%	0.52 nM	0.37 nM	1.04 nM
B2	36%	41%	3.85 nM	2.64 nM	58%	62%	3.39 nM	0.94 nM	1.83 nM
B3	27%	33%	1.18 nM	1.28 nM	42%	55%	0.68 nM	0.57 nM	1.02 nM
B4	33%	36%	0.45 nM	3.85 nM	47%	58%	0.37 nM	3.39 nM	0.69 nM
